From patent publication US12281340B2, “Method of producing N-acyl-amino group-containing compound” (AJINOMOTO CO., INC., priority 2018, dated 2025)

B1: PaHP: hypothetical protein from Pantoea agglomerans (PaaK protein), His-tagged (protein)
chain: MRSYDHQPTFVEQHNRISIISGSTFRDYEHFARSVPISKLVRMHEVEGKQGDDSSANLPSLIGATSGTSGKMKPVRIQLKNGGCSVSASERNFIYHLRERRVFFPQDVVGNLFTINLFSTLHQSACDIVKYCQGSIVPVGDIALLTRDHFLFLQEVELSVLFGVPATIIQFVEAMLSNKVPIGIKKIVFTGETLRPSQAEWLRSRLGRTLSIVGLYGLSECGFLGLTDAQDCDEYTLFNDDFFFEQDPVHGLLVTSLDPSAKNRLIRYPTGDGVELTFHNKQLKMRIMARKDLLFNFVGNLISVESIAATVAESIPESFIQLVIRSEKGQQELLLVNVAGKNLQTQQLELIAQKLRARPELAEVYQKQRGRLEVHSVAENAFVLSARGKHQFVVDERE
modifications: His-tag; Pantoea agglomerans
notes: hypothetical protein from Pantoea agglomerans (PaaK protein), His-tagged
B2: PsIAAL: indoleacetate-lysine synthetase from Pseudomonas savastanoi (PaaK protein), His-tagged (protein, listed as Pseudomonas savastanoi)
chain: MTAYDMEKEWSRISITAAKIHQNNDFEGFTYQDFRTHVPIMDKDGFAAQTERCLERNERNCLIGFTSGTSGNIKRCYYYYDCEVDEDSSLSNVFRSNGFILPGDRCANLFTINLFSALNNTITMMAGNCGAHVVSVGDITLVTKSHFEALNSIKLNVLLGVPSTILQFINAMQHNGVHINIEKVVFTGESLKTFQKKIIRQAFGEQVSIVGVYGSSEGGILGFTNSPCHTEYEFLSDKYFIEKEGDSILITSLTRENFTPLLRYRLGDTATLSMKGDKLYLTDIQREDMSFNFMGNLIGLGIIQQTIKQTLGRSLEIQVHLSVTEERKELVTVFVQASEVDEDERVRIETAIADIPDIKEAYQKNQGTVSVLRKDARDYAVSERGKMLYIIDRRN
modifications: His-tag
notes: indoleacetate-lysine synthetase from Pseudomonas savastanoi (PaaK protein), His-tagged

How the values were obtained:
[1] = Synthesis of N-caprinoyl-amino acid derivative, N-caprinoyl-D-amino acid and N-caprinoyl-peptide using purified acylamino acid synthetase, UPLC-MS detection; type: biochemical; parameters: key: +: Detected; −: Not detected; conditions: +ATP
Protocol: 0.2 mL of a reaction solution containing 50 mM Tris-HCl, 5 mM amino acid derivative or D-amino acid or peptide, 5 mM sodium caprate, 10 mM ATP, 10 mM MgCl2, 1 mM DTT, 50 μg/mL of the purified enzyme, pH 8.0 was incubated at 25° C. for 24 hours. After completion of the reaction, 0.8 mL of the reaction stop solution (1% (v/v) phosphoric acid, 75% (v/v) methanol) was added, and the mixture was filtrated through the filter followed by being subjected to the UPLC-MS analysis to detect a signal of a molecular weight corresponding to an N-caprinoyl-amino acid derivative, an N-caprinoyl-amino acid or an N-caprinoyl-peptide. A condition for the UPLC-MS analysis is as described in Example 2.
As a result of the UPLC-MS analysis, the signal of the molecular weight corresponding to the N-caprinoyl-amino acid derivative, or N-caprinoyl-amino acid, or N-caprinoyl-peptide was confirmed in the reaction solution containing the enzyme in combination with the amino acid derivative or the D-amino acid or the peptide shown in Table 4 below.

[2] = Synthesis of N-caprinoylamino acid using purified acylamino acid synthetase, UPLC-MS detection; type: biochemical; parameters: key: +: Detected; −: Not detected; conditions: +ATP
Protocol: 2.0 mL of a reaction solution containing 50 mM Tris-HCl, 5 mM amino acid, 5 mM sodium caprate, 10 mM ATP, 10 mM MgCl2, 1 mM DTT, 50 μg of the purified enzyme, pH 8.0 was incubated at 25° C. for 24 hours. After completion of the reaction, 0.8 mL of a reaction stop solution (1% (v/v) phosphoric acid, 75% (v/v) methanol) was added, and the mixture was filtrated through a filter followed by being subjected to the UPLC-MS analysis to detect a signal of a molecular weight corresponding to an N-caprinoyl amino acid.
A UPLC-MS analysis condition is as follows.
Apparatus: ACQUITY UPLC (Waters)
• Column: ACQUITY UPLC BEH C18 1.7 2.1×100 mm Column (Waters) • Mobile phase A: 0.1% formic acid • Mobile phase B: acetonitrile Gradient
• Flow rate: 0.6 mL/min • Injection amount: 2 μL • Column temperature: 40° C. • Ionization method: ESI-negative
As a result of the UPLC-MS analysis, the signal of the molecular weight corresponding to the N-caprinoyl amino acid was confirmed in the reaction solution combining the enzyme and the amino acid shown in Table 3 below.

[3] = substrates Carnosine and sodium caprate
[4] = substrates D-Ala and sodium caprate
[5] = substrates D-Asp and sodium caprate
[6] = substrates D-Cys and sodium caprate
[7] = substrates D-Glu and sodium caprate
[8] = substrates D-Ile and sodium caprate
[9] = substrates D-Lys and sodium caprate
[10] = substrates L-Asp-L-Phe and sodium caprate
[11] = substrates L-Gly-L-Gly and sodium caprate
[12] = substrates Sarcosine and sodium caprate
[13] = substrates Taurine and sodium caprate
[14] = substrates GABA and sodium caprate
[15] = substrates Gly and sodium caprate
[16] = substrates L-Ala and sodium caprate
[17] = substrates L-Arg and sodium caprate
[18] = substrates L-Asn and sodium caprate
[19] = substrates L-Asp and sodium caprate
[20] = substrates L-Cys and sodium caprate
[21] = substrates L-Gln and sodium caprate
[22] = substrates L-Glu and sodium caprate
[23] = substrates L-His and sodium caprate
[24] = substrates L-Ile and sodium caprate
[25] = substrates L-Leu and sodium caprate
[26] = substrates L-Lys and sodium caprate
[27] = substrates L-Met and sodium caprate
[28] = substrates L-Phe and sodium caprate
[29] = substrates L-Pro and sodium caprate
[30] = substrates L-Ser and sodium caprate
[31] = substrates L-Thr and sodium caprate
[32] = substrates L-Trp and sodium caprate
[33] = substrates L-Tyr and sodium caprate
[34] = substrates L-Val and sodium caprate
[35] = substrates β-Ala and sodium caprate

Molecule	signal of molecular weight corresponding to N-caprinoyl compound [1, 3]	signal of molecular weight corresponding to N-caprinoyl compound [1, 4]	signal of molecular weight corresponding to N-caprinoyl compound [1, 5]	signal of molecular weight corresponding to N-caprinoyl compound [1, 6]	signal of molecular weight corresponding to N-caprinoyl compound [1, 7]	signal of molecular weight corresponding to N-caprinoyl compound [1, 8]	signal of molecular weight corresponding to N-caprinoyl compound [1, 9]	signal of molecular weight corresponding to N-caprinoyl compound [1, 10]	signal of molecular weight corresponding to N-caprinoyl compound [1, 11]	signal of molecular weight corresponding to N-caprinoyl compound [1, 12]	signal of molecular weight corresponding to N-caprinoyl compound [1, 13]	signal of molecular weight corresponding to N-caprinoyl amino acid [2, 14]	signal of molecular weight corresponding to N-caprinoyl amino acid [2, 15]	signal of molecular weight corresponding to N-caprinoyl amino acid [2, 16]	signal of molecular weight corresponding to N-caprinoyl amino acid [2, 17]	signal of molecular weight corresponding to N-caprinoyl amino acid [2, 18]	signal of molecular weight corresponding to N-caprinoyl amino acid [2, 19]	signal of molecular weight corresponding to N-caprinoyl amino acid [2, 20]	signal of molecular weight corresponding to N-caprinoyl amino acid [2, 21]	signal of molecular weight corresponding to N-caprinoyl amino acid [2, 22]	also measured
B1	+	+	+	+	+	+	+	−	+	−	+	+	+	+	+	+	+	+	+	+	signal of molecular weight corresponding to N-caprinoyl amino acid [2, 23]: −; signal of molecular weight corresponding to N-caprinoyl amino acid [2, 24]: +; signal of molecular weight corresponding to N-caprinoyl amino acid [2, 25]: +; signal of molecular weight corresponding to N-caprinoyl amino acid [2, 26]: +; signal of molecular weight corresponding to N-caprinoyl amino acid [2, 27]: +; signal of molecular weight corresponding to N-caprinoyl amino acid [2, 28]: +; signal of molecular weight corresponding to N-caprinoyl amino acid [2, 29]: −; signal of molecular weight corresponding to N-caprinoyl amino acid [2, 30]: +; signal of molecular weight corresponding to N-caprinoyl amino acid [2, 31]: +; signal of molecular weight corresponding to N-caprinoyl amino acid [2, 32]: +; signal of molecular weight corresponding to N-caprinoyl amino acid [2, 33]: +; signal of molecular weight corresponding to N-caprinoyl amino acid [2, 34]: +; signal of molecular weight corresponding to N-caprinoyl amino acid [2, 35]: +
B2	+	+	+	+	+	+	+	+	+	+	+	+	+	+	+	+	+	+	+	+	signal of molecular weight corresponding to N-caprinoyl amino acid [2, 23]: +; signal of molecular weight corresponding to N-caprinoyl amino acid [2, 24]: +; signal of molecular weight corresponding to N-caprinoyl amino acid [2, 25]: +; signal of molecular weight corresponding to N-caprinoyl amino acid [2, 26]: +; signal of molecular weight corresponding to N-caprinoyl amino acid [2, 27]: +; signal of molecular weight corresponding to N-caprinoyl amino acid [2, 28]: +; signal of molecular weight corresponding to N-caprinoyl amino acid [2, 29]: +; signal of molecular weight corresponding to N-caprinoyl amino acid [2, 30]: +; signal of molecular weight corresponding to N-caprinoyl amino acid [2, 31]: +; signal of molecular weight corresponding to N-caprinoyl amino acid [2, 32]: +; signal of molecular weight corresponding to N-caprinoyl amino acid [2, 33]: +; signal of molecular weight corresponding to N-caprinoyl amino acid [2, 34]: +; signal of molecular weight corresponding to N-caprinoyl amino acid [2, 35]: +
